Earlier results as cited in publication PMC6611495.

Target: protective antigen (PA) (Bacillus anthracis) (UniProt P13423)

In the case of rCMG2 (from UniProt P58335), the Kd is given as 400 pM.
